US20130064834A1 (published 2013)

T1: human PCSK7, myc-myc-his tagged (human, UniProt Q16549 142-667, limits assumed)
T1 construct: also called hPCSK7-mmh; hPCSK7
T1 sequence: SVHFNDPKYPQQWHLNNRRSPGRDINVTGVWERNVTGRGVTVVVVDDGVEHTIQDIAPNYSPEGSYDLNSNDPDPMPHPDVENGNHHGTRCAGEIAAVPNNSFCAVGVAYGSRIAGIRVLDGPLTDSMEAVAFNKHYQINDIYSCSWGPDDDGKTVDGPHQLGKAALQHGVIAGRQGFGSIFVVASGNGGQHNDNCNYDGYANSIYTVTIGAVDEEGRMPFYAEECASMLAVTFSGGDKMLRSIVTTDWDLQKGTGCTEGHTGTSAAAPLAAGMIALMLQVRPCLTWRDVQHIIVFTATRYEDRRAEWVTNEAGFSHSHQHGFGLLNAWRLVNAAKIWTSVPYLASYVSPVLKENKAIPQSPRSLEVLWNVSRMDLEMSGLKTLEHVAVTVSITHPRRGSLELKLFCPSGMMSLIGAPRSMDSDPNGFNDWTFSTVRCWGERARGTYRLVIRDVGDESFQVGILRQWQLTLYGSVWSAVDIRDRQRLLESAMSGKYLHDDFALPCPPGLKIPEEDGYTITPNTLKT

T2: human PCSK1, myc-myc-his tagged (human, UniProt P29120 111-753, limits assumed)
T2 construct: also called hPCSK1-mmh; hPCSK1
T2 sequence: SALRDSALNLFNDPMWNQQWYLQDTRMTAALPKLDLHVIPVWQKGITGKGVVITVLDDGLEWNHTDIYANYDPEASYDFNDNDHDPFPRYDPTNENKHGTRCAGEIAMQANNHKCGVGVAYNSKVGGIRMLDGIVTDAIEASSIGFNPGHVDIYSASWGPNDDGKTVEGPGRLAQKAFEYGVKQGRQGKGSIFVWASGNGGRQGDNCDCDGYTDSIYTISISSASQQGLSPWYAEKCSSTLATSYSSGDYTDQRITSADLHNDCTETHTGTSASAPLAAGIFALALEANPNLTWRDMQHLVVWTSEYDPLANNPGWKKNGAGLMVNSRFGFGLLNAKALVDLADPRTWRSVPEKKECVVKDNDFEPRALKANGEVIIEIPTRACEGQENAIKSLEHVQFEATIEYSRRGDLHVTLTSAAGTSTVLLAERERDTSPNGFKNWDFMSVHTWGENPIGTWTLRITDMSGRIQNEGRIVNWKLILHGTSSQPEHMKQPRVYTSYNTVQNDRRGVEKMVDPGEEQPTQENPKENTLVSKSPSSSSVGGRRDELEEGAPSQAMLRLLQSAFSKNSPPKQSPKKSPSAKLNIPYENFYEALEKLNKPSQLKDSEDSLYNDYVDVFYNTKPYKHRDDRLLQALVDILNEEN


Assays:
[1] = molecular target: T1, human PCSK7, myc-myc-his tagged; assay: ELISA, mAb coated
[2] = molecular target: T2, human PCSK1, myc-myc-his tagged; assay: ELISA, mAb coated
[3] = molecular target: T3, mouse PCSK9, myc-myc-his tagged (mouse, UniProt Q80W65 35-694); assay: ELISA, mAb coated, 1.2 nM antigen;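 note: antigen allowed to bind for 1 h at room temperature, then captured protein revealed with an HRP-linked polyclonal anti-myc antibody and read as optical density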
T3 construct: also called mPCSK9-mmh; mPCSK9
Description: After 1 hr binding at RT, the plate was washed and bound test protein detected using HRP-conjugated anti-myc polyclonal antibody (++=OD>1.0; +=OD 0.4-1.0; −=OD<0.4).

[4] = molecular target: T3, mouse PCSK9, myc-myc-his tagged; assay: SPR, mAb captured on anti-hFc, 37C
hPCSK9(D374Y)-mmh [5] = molecular target: T4, hPCSK9(D374Y)-mmh (human, UniProt Q8NBP7 31-692); assay: SPR, mAb captured on anti-hFc, 37C
T4 construct: also called hPCSK(D374Y)-mmh

Human PCSK9-myc-myc-his [6] = molecular target: T5, Human PCSK9-myc-myc-his (human, UniProt Q8NBP7 31-692); assay: SPR, mAb captured, 25C
T5 construct: also called hPCSK9-mmh; hPCSK9
Protocol: Each selected antibody was captured at a flowrate of 2 μl/min for 6 min on a goat anti-human IgG polyclonal antibody surface created through direct chemical coupling to a BIACORE™ chip to form a captured antibody surface.

[7] = molecular target: T1, human PCSK7, myc-myc-his tagged; assay: SPR, mAb captured on anti-hFc, 25C
[8] = molecular target: T2, human PCSK1, myc-myc-his tagged; assay: SPR, mAb captured on anti-hFc, 25C
Human PCSK9-myc-myc-his [9] = molecular target: T5, Human PCSK9-myc-myc-his; assay: SPR, mAb captured on anti-hFc, 25C
[10] = molecular target: T6, cynomolgus monkey (Macaca fascicularis) PCSK9, myc-myc-his tagged (cynomolgus monkey (Macaca fascicularis), UniProt A8T662 31-692 (Macaca nemestrina entry), limits assumed); assay: SPR, mAb captured on anti-hFc, 25C
T6 construct: also called mfPCSK9-mmh; mfPCSK9
T6 sequence (A8T662 31-692 limits assumed): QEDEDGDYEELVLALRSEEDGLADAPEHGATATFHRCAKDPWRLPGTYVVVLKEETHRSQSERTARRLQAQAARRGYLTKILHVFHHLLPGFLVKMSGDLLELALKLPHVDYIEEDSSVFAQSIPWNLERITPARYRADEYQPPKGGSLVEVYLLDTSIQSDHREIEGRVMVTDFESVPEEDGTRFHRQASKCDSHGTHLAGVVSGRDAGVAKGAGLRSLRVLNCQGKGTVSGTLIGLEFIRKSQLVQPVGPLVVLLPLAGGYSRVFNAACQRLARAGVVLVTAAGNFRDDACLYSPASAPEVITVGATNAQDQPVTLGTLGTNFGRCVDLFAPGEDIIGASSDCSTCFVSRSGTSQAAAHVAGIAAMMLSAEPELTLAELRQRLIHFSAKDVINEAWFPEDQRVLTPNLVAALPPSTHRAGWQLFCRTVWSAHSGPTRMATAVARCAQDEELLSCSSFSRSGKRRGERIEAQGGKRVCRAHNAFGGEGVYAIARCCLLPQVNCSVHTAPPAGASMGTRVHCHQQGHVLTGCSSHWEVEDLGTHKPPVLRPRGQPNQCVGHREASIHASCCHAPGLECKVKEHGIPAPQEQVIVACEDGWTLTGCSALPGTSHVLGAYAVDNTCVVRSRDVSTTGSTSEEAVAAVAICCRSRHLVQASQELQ

[11] = molecular target: T7, tagged rhesus monkey (Macaca mulata) PCSK9 (rhesus monkey (Macaca mulata), UniProt A8T666 31-692); assay: SPR, mAb captured on anti-hFc, 25C
T7 construct: also called mmPCSK9-mmh; mmPCSK9
T7 sequence (A8T666 31-692 limits assumed): as the sequence (A8T662 31-692 limits assumed) above, with A607P, E639K counted along it

hPCSK9(D374Y)-mmh [12] = molecular target: T4, hPCSK9(D374Y)-mmh; assay: SPR, mAb captured on anti-hFc, 25C

| Binder | binding result [1] | binding result [2] | OD [3] [od] | Kd [4] [nM] | T1/2 [4] [min] | Kd (hPCSK9(D374Y)-mmh [5]) [nM] | T1/2 (hPCSK9(D374Y)-mmh [5]) [min] | Kd (Human PCSK9-myc-myc-his [6]) [nM] | T1/2 (Human PCSK9-myc-myc-his [6]) [min] | binding result [7] | binding result [8] | Kd (Human PCSK9-myc-myc-his [9]) [nM] | T1/2 (Human PCSK9-myc-myc-his [9]) [min] | Kd [10] [nM] | T1/2 [10] [min] | Kd [11] [nM] | T1/2 [11] [min] | Kd (hPCSK9(D374Y)-mmh [12]) [nM] | T1/2 (hPCSK9(D374Y)-mmh [12]) [min] |
| --- | --- | --- | --- | --- | --- | --- | --- | --- | --- | --- | --- | --- | --- | --- | --- | --- | --- | --- | --- |
| H1H316P (antibody, V domains shown, Fully human mAb made in CHO cells; also called mAb316P) VH: EVQLVESGGGLVQPGGSLRLSCAASGFTFNNYAMNWVRQAPGKGLDWVSTISGSGGTTNYADSVKGRFIISRDSSKHTLYLQMNSLRAEDTAVYYCAKDSNWGNFDLWGRGTLVTVSS VL: not shown | no binding (tested: 1.2 nM) | no binding (tested: 1.2 nM) | > 1 | 4.7 | 3 | 4.2 | 4 | 0.377 | 42 |  |  |  |  |  |  |  |  |  |  |
| H1M300N (antibody, V domains shown, Fully human version made in CHO cells) VH: EMQLVESGGGLVQPGGSLRLSCAASGFTFSSHWMKWVRQAPGKGLEWVANINQDGSEKYYVDSVKGRFTISRDNAKNSLFLQMNSLRAEDTAVYYCARDIVLMVYDMDYYYYGMDVWGQGTTVTVSS VL: not shown |  |  |  |  |  |  |  |  |  | no binding (tested: 100 nM) | no binding (tested: 100 nM) | 0.74 | 110 | 1.5 | 45 | 0.61 | 79 | 0.9 | 65 |
